Some results are limits rather than exact numbers.

The labels stand for the following.
B1: scFv; the commonest letter at each place (parent)
chain 1: EVKLDETGGGLVQPGRPMKLSCVASGFTFSDYWMNWVRQSPEKGLEWVAQIRNKPYNYETYYSDSVKGRFTISRDDSKSSVYLQMNNLRVEDMGIYYCTGSYYGMDYWGQGTSVTVS
chain 2: DVVMTQTPLSLPVSLGDQASISCRSSQSLVHSNGNTYLRWYLQKPGQSPKVLIYKVSNRFSGVPDRFSGSGSGTDFTLKISRVEAEDLGVYFCSQSTHVPWTFGGGTKLEIK

Variants of B1 are the subject of the data set “fluorescein”. In words: Kd (Tite-Seq). The conditions noted are these: with fluorescein; format: scFv 4-4-20, heavy + light.
The variants in data set [1] derive from B1. Briefly: yeast surface expression (ratio to wild type); higher = more expressed. To be noted: format: scFv 4-4-20, heavy + light.

Consider chain 1 S30E M34T W36T, for which the dissociation constant Kd with fluorescein was at least 10000 nM. Besides, the yeast surface expression in data set [1] turned out to be 0.353. For chain 1 N35Q W36M, the dissociation constant Kd with fluorescein is at least 10000 nM. Moreover, in data set [1], the yeast surface expression came out at 0.504.

As to chain 1 S30M N35V V37A, the Kd in the data set with fluorescein is at least 10000 nM. In data set [1], the yeast surface expression was 0.167. Take chain 1 S30P M34F: the dissociation constant (Kd) in the data set with fluorescein is 1.84 nM. Further, in data set [1], the yeast surface expression was found to be 1.2. chain 1 S30H Y32T: the dissociation constant Kd with fluorescein was at least 10000 nM. Further, the yeast surface expression in data set [1] came out at 0.891. chain 1 S30H Y32C: the Kd with fluorescein amounted to 9500 nM. Also, in data set [1], the yeast surface expression turned out to be 0.722.

In the case of chain 1 S30R M34S, the equilibrium dissociation constant (Kd) with fluorescein came to 110 nM. Besides, the yeast surface expression in data set [1] worked out at 0.717. Regarding chain 1 S30R M34D, in the data set with fluorescein, the Kd is at least 10000 nM. For the same variant, in data set [1], the yeast surface expression was 0.775. Regarding chain 1 S30R M34C, in the data set with fluorescein, the equilibrium dissociation constant (Kd) was determined as 4.44 nM. Moreover, the yeast surface expression in data set [1] came to 0.668. As for chain 1 N35L V37P, the Kd with fluorescein was at least 10000 nM. Besides, the yeast surface expression in data set [1] was determined as 0.67. As for chain 1 S30F, the Kd with fluorescein was 2.05 nM. Moreover, the yeast surface expression in data set [1] amounted to 0.828. In the case of chain 1 S30K, in the data set with fluorescein, the Kd was found to be 1.22 nM. Also, in data set [1], the yeast surface expression is 1.12. On to chain 1 S30I, for which the Kd with fluorescein stood at 2.15 nM. Besides, in data set [1], the yeast surface expression is 0.787. As to chain 1 S30H, in the data set with fluorescein, the Kd stood at 3.17 nM. Also, the yeast surface expression in data set [1] is 0.839. On to chain 1 S30G, for which, in the data set with fluorescein, the dissociation constant Kd amounted to 0.67 nM. The yeast surface expression in data set [1] is 1.12. For the variant chain 1 S30P, the equilibrium dissociation constant (Kd) with fluorescein is 1.01 nM. Further, in data set [1], the yeast surface expression turned out to be 1.06. chain 1 S30A: in the data set with fluorescein, the Kd amounted to 0.803 nM. For the same variant, in data set [1], the yeast surface expression came to 1.08.

For chain 1 S30L, the dissociation constant Kd in the data set with fluorescein came out at 6.38 nM. Moreover, the yeast surface expression in data set [1] is 0.801. Regarding chain 1 S30Q, the Kd with fluorescein is 0.938 nM. In data set [1], the yeast surface expression came out at 1.12. As to chain 1 S30R, the Kd with fluorescein worked out at 0.964 nM. Also, the yeast surface expression in data set [1] was 0.995. As for chain 1 S30M, the dissociation constant (Kd) with fluorescein came to 1.75 nM. The yeast surface expression in data set [1] amounted to 0.855.

Take chain 1 S30T: the dissociation constant Kd with fluorescein was determined as 0.743 nM. Besides, in data set [1], the yeast surface expression was 1.07. For chain 1 S30C, in that order: 1.28 nM and 0.906.

chain 1 S30E: in the data set with fluorescein, the Kd came out at 0.962 nM. Moreover, the yeast surface expression in data set [1] is 0.948. For chain 1 S30N, in that order: 1.22 nM and 0.889. Turning to chain 1 S30D, the Kd in the data set with fluorescein came to 2.05 nM. In data set [1], the yeast surface expression came out at 0.919. For chain 1 S30I V37C, in that order: 1.35 nM and 0.464.

Take chain 1 N35Y W36Y V37D: the Kd with fluorescein was at least 10000 nM. Also, in data set [1], the yeast surface expression is 1.04. In the case of chain 1 S30E N35E, the dissociation constant Kd with fluorescein was at least 10000 nM. Moreover, the yeast surface expression in data set [1] is 0.894. For the variant chain 1 S30Q N35K, the Kd with fluorescein was at least 10000 nM. Further, the yeast surface expression in data set [1] turned out to be 0.304.

Turning to chain 1 S30D D31G W33A, in the data set with fluorescein, the Kd is at least 10000 nM. Further, in data set [1], the yeast surface expression worked out at 0.663.

Turning to chain 1 N35K V37M, the Kd with fluorescein was at least 10000 nM. Further, the yeast surface expression in data set [1] was 0.48. Take chain 1 N35K V37K: the dissociation constant (Kd) in the data set with fluorescein stood at 6960 nM. Also, the yeast surface expression in data set [1] is 0.0981. In the case of chain 1 N35K V37S, in the data set with fluorescein, the Kd is at least 10000 nM. The yeast surface expression in data set [1] is 0.732.

As to chain 1 S30D W36V V37L, the dissociation constant (Kd) with fluorescein is at least 10000 nM. Also, the yeast surface expression in data set [1] amounted to 0.433. As to chain 1 N35E W36E, the Kd in the data set with fluorescein was at least 10000 nM. For the same variant, the yeast surface expression in data set [1] turned out to be 1.23. On to chain 1 S30G M34R, for which, in the data set with fluorescein, the Kd turned out to be 1.99 nM. As to chain 1 S30G M34I, in the data set with fluorescein, the dissociation constant (Kd) worked out at 2.39 nM. Further, the yeast surface expression in data set [1] worked out at 0.889.

Regarding chain 1 S30G M34H, the Kd in the data set with fluorescein was determined as 5660 nM. In data set [1], the yeast surface expression stood at 0.659. For the variant chain 1 S30H Y32R V37Q, in the data set with fluorescein, the Kd was determined as 18.9 nM. Also, the yeast surface expression in data set [1] amounted to 1.99. As to chain 1 S30R D31R, the Kd with fluorescein worked out at 8.27 nM. The yeast surface expression in data set [1] is 0.684. The corresponding values for chain 1 S30I Y32T are at least 10000 nM and 0.909. With chain 1 S30K W36E, the Kd with fluorescein is at least 10000 nM. Further, in data set [1], the yeast surface expression stood at 1.31.

Regarding chain 1 S30L N35T, the Kd in the data set with fluorescein is at least 10000 nM. Further, the yeast surface expression in data set [1] stood at 0.699. As to chain 1 N35I V37M, in the data set with fluorescein, the Kd is at least 10000 nM. Also, in data set [1], the yeast surface expression was 0.626. For chain 1 S30P D31S N35P, the Kd with fluorescein is at least 10000 nM. For the same variant, in data set [1], the yeast surface expression came out at 0.757. For chain 1 S30N W36D, in that order: at least 10000 nM and 0.393.

Consider chain 1 S30N W36C, for which, in the data set with fluorescein, the dissociation constant (Kd) was at least 10000 nM. In data set [1], the yeast surface expression was determined as 0.445. Regarding chain 1 S30N W36N, the Kd with fluorescein was at least 10000 nM. Besides, in data set [1], the yeast surface expression stood at 0.265. Take chain 1 S30G D31H S101A Y102S D106E W108L: the Kd with fluorescein is 0.351 nM. In addition, in data set [1], the yeast surface expression came out at 0.844.

Turning to chain 1 S30A D31A V37C, in the data set with fluorescein, the Kd came to 1.58 nM. Moreover, the yeast surface expression in data set [1] was 0.739. For chain 1 S30K Y32E, in that order: at least 10000 nM and 0.857. Consider chain 1 S30F Y32H, for which the dissociation constant (Kd) with fluorescein came out at 50.7 nM. Besides, the yeast surface expression in data set [1] worked out at 0.679.

Consider chain 1 S30F Y32Q, for which the dissociation constant (Kd) with fluorescein is at least 10000 nM. For the same variant, the yeast surface expression in data set [1] is 0.653.

In the case of chain 1 S30Q W33S, the dissociation constant Kd with fluorescein was at least 10000 nM. Further, the yeast surface expression in data set [1] turned out to be 0.902. Take chain 1 S30Q W33N: the Kd with fluorescein is at least 10000 nM. Further, the yeast surface expression in data set [1] is 0.979. Consider chain 1 N35I W36L, for which, in the data set with fluorescein, the Kd was at least 10000 nM. Besides, in data set [1], the yeast surface expression came out at 2.65.

On to chain 1 N35I W36N, for which, in the data set with fluorescein, the dissociation constant Kd is at least 10000 nM. The yeast surface expression in data set [1] came out at 0.743.
